Results published in patent US20210046160A1 (Synthorx, Inc., priority 2019, published 2021).

Tests used:
[1] = target: T1, IL-2 receptor βγ complex (IL-2Rβ and IL-2Rγ subunits) (Homo sapiens, UniProt P14784+P31785); assay: PathHunter IL-2 Cytokine Receptor assay, agonist mode, βγ cell line; type: cell-based; settings: ratio of the EC50 values
T1 construct: host or cells: recombinant human U2OS cell line (PathHunter)
T1 sequence (P14784 27-551): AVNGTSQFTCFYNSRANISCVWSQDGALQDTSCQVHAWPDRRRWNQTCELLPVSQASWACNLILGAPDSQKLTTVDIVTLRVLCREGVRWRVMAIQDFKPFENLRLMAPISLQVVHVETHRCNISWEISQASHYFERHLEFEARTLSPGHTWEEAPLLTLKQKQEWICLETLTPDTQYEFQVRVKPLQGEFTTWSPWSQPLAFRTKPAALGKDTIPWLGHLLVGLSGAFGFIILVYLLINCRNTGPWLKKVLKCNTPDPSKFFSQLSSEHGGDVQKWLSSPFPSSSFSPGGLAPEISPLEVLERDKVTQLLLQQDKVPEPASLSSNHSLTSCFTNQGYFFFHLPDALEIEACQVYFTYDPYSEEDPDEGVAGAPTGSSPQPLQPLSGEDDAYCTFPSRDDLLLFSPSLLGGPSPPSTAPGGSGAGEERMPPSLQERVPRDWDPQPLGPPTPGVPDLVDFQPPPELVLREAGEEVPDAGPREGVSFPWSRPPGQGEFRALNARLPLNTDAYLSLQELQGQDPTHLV
T1 sequence (P31785 23-369): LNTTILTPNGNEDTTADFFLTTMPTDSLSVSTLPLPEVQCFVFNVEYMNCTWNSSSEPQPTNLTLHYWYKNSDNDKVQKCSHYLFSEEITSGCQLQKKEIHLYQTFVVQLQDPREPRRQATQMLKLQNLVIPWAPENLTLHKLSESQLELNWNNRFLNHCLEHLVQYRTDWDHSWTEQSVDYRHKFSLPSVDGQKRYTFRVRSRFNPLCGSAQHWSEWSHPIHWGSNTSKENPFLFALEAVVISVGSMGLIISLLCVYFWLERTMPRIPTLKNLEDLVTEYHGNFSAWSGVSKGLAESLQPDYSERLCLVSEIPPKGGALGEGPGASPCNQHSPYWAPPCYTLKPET
Method: PathHunter cell lines were expanded from freezer stocks according to standard procedures. Cells were seeded in a total volume of 20 μL into white walled, 384-well microplates and incubated for the appropriate time prior to testing.
For agonist determination, cells were incubated with sample to induce response. Intermediate dilution of sample stocks was performed to generate 5× sample in assay buffer. About 5 μL of 5× sample was added to cells and incubated at 37° C. for 6 to 16 hours depending on the assay. Vehicle concentration was 1%.
Assay signal was generated through a single addition of 12.5 or 15 μL (50% v/v) of PathHunter Detection reagent cocktail for agonist and antagonist assays respectively, followed by a one hour incubation at room temperature. For some assays, activity was detected using a high sensitivity detection reagent (PathHunter Flash Kit) to improve assay performance. In these assays, an equal volume of detection reagent (25 or 30 μL) was added to the wells, followed by a one hour incubation at room temperature. Microplates were read following signal generation with a PerkinElmer Envision™ instrument for chemiluminescent signal detection.
Compound activity was analyzed using CBIS data analysis suite (ChemInnovation, CA). For agonist mode assays, percentage activity was calculated using the following Formula:
% Activity=100%×(mean RLU of test sample−mean RLU of vehicle control)/(mean MAX RLU control ligand−mean RLU of vehicle control).
A second cell line has been further engineered to express the IL-2Rα subunit. […] The assay was run in agonist mode to determine the EC50 of each test article, and comparison of dose-response curve profiles between IL2Rα positive and negative cell types allows determination of the contribution of IL2Rα to the observed activity.

[2] = tested on: CTLL-2; assay: CTLL-2 proliferation; type: cell-based; settings: Table 4
[3] = tested on: pSTAT5 and proliferation in CD8+ T, NK and Treg cells; assay: Pharmacodynamics in peripheral blood compartment (pSTAT5, Ki-67, cell counts), Example 5; type: in vivo, C57BL/6 mice; settings: mice
Source text: (§1) Terminal blood samples were collected via cardiac puncture at the points indicated. […] Plasma and blood cells (in both studies) and tumors in study E3826-U1803 were collected for PK and PD analyses.
STAT5 phosphorylation and induction of cell proliferation (the early molecular marker Ki-67 and cell counts) was used as pharmacodynamics readouts to assess the pharmacological profile of P65_30kD relative to its pharmacokinetics.

[4] = Plasma and tumor PK study E3826-U1803 in B16-F10 tumor-bearing C57BL/6 mice; type: in vivo
Method: as §1
Bioanalysis of plasma samples was performed using a qualified human IL-2 ELISA assay (Abcam, Cambridge, UK). Concentrations of Aldesleukin, E62_30kD and P65_30kD and the internal standard in samples derived from plasma were determined using an ELISA assay. […] The PK data were imported into Phoenix WinNonlin v6.4 (Certara/Pharsight, Princeton, N.J.) for analysis. The group mean plasma concentration versus time data were analyzed with noncompartmental methods using an IV bolus administration model.
The tail end of the curves cross showing the plasma eliminates faster than the tumor (data not shown).

[5] = B16-F10 tumor-bearing C57BL/6 female mice, 3 mg/kg single IV dose

Substance: P65_30kD: SEQ ID NO: 25: IL-2 (SEQ ID NO: 4) with P65 replaced by AzK click-conjugated to methoxy linear 30 kDa PEG [Compound P65_30kD]
- βγ/αβγ ratio [1]: 5
- EC50, CTLL-2 proliferation [2]: 677,198 pg/mL
- proliferative responses of CD8+ effector T cells and NK cells (not Tregs), time window [3]: 72 to 120 h
- persistent elevation of pSTAT5 in NK and CD8+ T cells, up to ([3]; single IV dose): up to 72 h
- persistent elevation of pSTAT5 in Tregs, up to ([3]; single IV dose): up to 24 h
- tumor:plasma AUC ratio ([4]; 1 mg/kg dose): 9.7%
- tumor:plasma AUC ratio ([4]; 3 mg/kg dose): 8.4%
- AUC0-t, Plasma [4, 5]: 656,000 h*ng/mL
- AUC0-t, Tumor [4, 5]: 55200 ng·h/mL
- AUCINF, Plasma [4, 5]: 656,000 h*ng/mL
- AUCINF, Tumor [4, 5]: 55200 ng·h/mL
- Cmax, Plasma [4, 5]: 40000 ng/mL
- Cmax, Tumor [4, 5]: 1550 ng/mL
- Tmax, Plasma [4, 5]: *2.00 h
- Tmax, Tumor [4, 5]: 8 h
- t½, Plasma [4, 5]: 12.6 h
- t½, Tumor [4, 5]: 24.4 h
